Laboratory results published in patent US20230175000, “MAIZE GENE ZMRAVL1 AND FUNCTIONAL SITE AND USE THEREOF” (CHINA AGRICULTURAL UNIVERSITY, published 2023).

Molecular target: T1, DRL1 (Drooping leaf1, YABBY C2C2) (Zea mays, UniProt A0A804LG43 A0A804LG43:1-207)
T1 sequence: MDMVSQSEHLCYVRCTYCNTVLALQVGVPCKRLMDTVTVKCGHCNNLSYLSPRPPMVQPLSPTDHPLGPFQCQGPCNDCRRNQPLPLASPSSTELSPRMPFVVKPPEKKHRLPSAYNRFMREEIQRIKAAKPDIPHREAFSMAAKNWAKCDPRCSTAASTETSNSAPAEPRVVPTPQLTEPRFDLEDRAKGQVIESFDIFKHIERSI
Test: EMSA; room temperature 20 min; band slightly brighter than W22 probe; competed by unlabeled probe
Settings: tags: His fusion (PET32a, E. coli Rosetta, nickel beads); label: biotin
Method: EMSA (electrophoretic mobility shift assay) was carried out to validate the above speculation. First of all, biotin-labeled EMSA probes (UPA2-NIL^W22 biotin probes: UPA2-NIL^W22-F, UPA2-NIL^W22-R; UPA2-NIL^W22 competitive probe: UPA2-NIL^W22-com-F, UPA2-NIL^W22-com-R; UPA2-NIL⁸⁷⁵⁹ biotin probes: UPA2-NIL⁸⁷⁵⁹-F, UPA2-NIL⁸⁷⁵⁹-R; UPA2-NIL⁸⁷⁵⁹ competitive probe: UPA2-NIL⁸⁷⁵⁹-com-F, UPA2-NIL⁸⁷⁵⁹-com-R) were designed for the sequences of UPA2-NIL^W22 and UPA2-NIL⁸⁷⁵⁹ respectively. The probe included a C2C2-binding motif and upstream and downstream flanking sequences (each 22 bp). In the meantime, the corresponding sequences that were not labeled with biotin were synthesized as competitive probes. Next, the DRL1 CDS region was recombined onto a PET32a prokaryotic expression vector by a homologous recombination method to construct an expression vector of DRL1-His fusion proteins and it was introduced into the expression strain Rosetta to induce the expression of the DRL1-His fusion proteins. Finally, the DRL1-His fusion proteins were obtained through purification using Nickel beads. […]

B1: UPA2-NIL8759 probe (dsDNA)
DNA 1: AACTGCGCATGCGCGCGCTGAGTGTGGTCCTTCTCTTTTAATTACTACTG
DNA 2: CAGTAGTAATTAAAAGAGAAGGACCACACTCAGCGCGCGCATGCGCAGTT
binding result: binds
